3 molecules from patent publication US20240279278A1, “NMU RECEPTOR 2 AGONISTS” (Boehringer Ingelheim International GmbH, priority 2023, published 2024) can be followed below.

Sequences and labels used below:
B1: C18DA-gGlu4-Sar12-AEPipAc-Tyr-Phe-NMeLeu-Nle-Dbu-Pro-Arg-Gly-NH2 (peptide)
peptide: EEEEXXXXXXXXXXXXXYFLXXPRG
HELM: PEPTIDE1{[O=C(O)CCCCCCCCCCCCCCCCC(=O)[*:2]].[gGlu].[gGlu].[gGlu].[gGlu].[Sar].[Sar].[Sar].[Sar].[Sar].[Sar].[Sar].[Sar].[Sar].[Sar].[Sar].[Sar].[O=C(CN1CCN(CCN[*:1])CC1)[*:2]].Y.F.[meL].[Nle].[Dab].P.R.G.[am]}$$$$V2.0
SMILES: CCCC[C@H](NC(=O)[C@H](CC(C)C)N(C)C(=O)[C@H](Cc1ccccc1)NC(=O)[C@H](Cc1ccc(O)cc1)NC(=O)CN1CCN(CCNC(=O)CN(C)C(=O)CN(C)C(=O)CN(C)C(=O)CN(C)C(=O)CN(C)C(=O)CN(C)C(=O)CN(C)C(=O)CN(C)C(=O)CN(C)C(=O)CN(C)C(=O)CN(C)C(=O)CN(C)C(=O)CC[C@H](NC(=O)CC[C@H](NC(=O)CC[C@H](NC(=O)CC[C@H](NC(=O)CCCCCCCCCCCCCCCCC(=O)O)C(=O)O)C(=O)O)C(=O)O)C(=O)O)CC1)C(=O)N[C@@H](CCN)C(=O)N1CCC[C@H]1C(=O)N[C@@H](CCCNC(=N)N)C(=O)NCC(N)=O
B2: C20DA-gGlu4-Sar12-AEPipAc-Tyr-Phe-NMeLeu-Nle-Arg-Pro-Arg-Gly-NH2 (peptide)
peptide: EEEEXXXXXXXXXXXXXYFLXRPRG
HELM: PEPTIDE1{[O=C(O)CCCCCCCCCCCCCCCCCCC(=O)[*:2]].[gGlu].[gGlu].[gGlu].[gGlu].[Sar].[Sar].[Sar].[Sar].[Sar].[Sar].[Sar].[Sar].[Sar].[Sar].[Sar].[Sar].[O=C(CN1CCN(CCN[*:1])CC1)[*:2]].Y.F.[meL].[Nle].R.P.R.G.[am]}$$$$V2.0
SMILES: CCCC[C@H](NC(=O)[C@H](CC(C)C)N(C)C(=O)[C@H](Cc1ccccc1)NC(=O)[C@H](Cc1ccc(O)cc1)NC(=O)CN1CCN(CCNC(=O)CN(C)C(=O)CN(C)C(=O)CN(C)C(=O)CN(C)C(=O)CN(C)C(=O)CN(C)C(=O)CN(C)C(=O)CN(C)C(=O)CN(C)C(=O)CN(C)C(=O)CN(C)C(=O)CN(C)C(=O)CC[C@H](NC(=O)CC[C@H](NC(=O)CC[C@H](NC(=O)CC[C@H](NC(=O)CCCCCCCCCCCCCCCCCCC(=O)O)C(=O)O)C(=O)O)C(=O)O)C(=O)O)CC1)C(=O)N[C@@H](CCCNC(=N)N)C(=O)N1CCC[C@H]1C(=O)N[C@@H](CCCNC(=N)N)C(=O)NCC(N)=O
B3: C20DA-gGlu4-Sar12-AEPipAc-Tyr-Phe-NMeLeu-Nle-Orn-Pro-Arg-Gly-NH2 (peptide)
peptide: EEEEXXXXXXXXXXXXXYFLXXPRG
HELM: PEPTIDE1{[O=C(O)CCCCCCCCCCCCCCCCCCC(=O)[*:2]].[gGlu].[gGlu].[gGlu].[gGlu].[Sar].[Sar].[Sar].[Sar].[Sar].[Sar].[Sar].[Sar].[Sar].[Sar].[Sar].[Sar].[O=C(CN1CCN(CCN[*:1])CC1)[*:2]].Y.F.[meL].[Nle].[Orn].P.R.G.[am]}$$$$V2.0
SMILES: CCCC[C@H](NC(=O)[C@H](CC(C)C)N(C)C(=O)[C@H](Cc1ccccc1)NC(=O)[C@H](Cc1ccc(O)cc1)NC(=O)CN1CCN(CCNC(=O)CN(C)C(=O)CN(C)C(=O)CN(C)C(=O)CN(C)C(=O)CN(C)C(=O)CN(C)C(=O)CN(C)C(=O)CN(C)C(=O)CN(C)C(=O)CN(C)C(=O)CN(C)C(=O)CN(C)C(=O)CC[C@H](NC(=O)CC[C@H](NC(=O)CC[C@H](NC(=O)CC[C@H](NC(=O)CCCCCCCCCCCCCCCCCCC(=O)O)C(=O)O)C(=O)O)C(=O)O)C(=O)O)CC1)C(=O)N[C@@H](CCCN)C(=O)N1CCC[C@H]1C(=O)N[C@@H](CCCNC(=N)N)C(=O)NCC(N)=O

This assay deals with T1, human neuromedin U receptor 1 (human, UniProt Q9HB89 24-426).
T1 sequence (looked up): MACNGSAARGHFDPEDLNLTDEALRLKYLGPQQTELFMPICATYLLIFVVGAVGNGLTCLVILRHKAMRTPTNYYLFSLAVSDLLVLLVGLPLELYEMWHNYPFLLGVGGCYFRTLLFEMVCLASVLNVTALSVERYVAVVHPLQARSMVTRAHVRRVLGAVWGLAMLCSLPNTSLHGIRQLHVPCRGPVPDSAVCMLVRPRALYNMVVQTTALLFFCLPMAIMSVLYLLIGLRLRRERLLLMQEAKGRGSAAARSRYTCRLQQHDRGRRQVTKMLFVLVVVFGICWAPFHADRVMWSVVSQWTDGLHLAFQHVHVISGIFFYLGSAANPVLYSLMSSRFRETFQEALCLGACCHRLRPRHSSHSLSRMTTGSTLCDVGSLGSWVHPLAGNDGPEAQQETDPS
The assay is described as follows: cell-based or functional assay.
Turning to B1, the “EC50 (hNMUR1) buffer” value worked out at 1300 nM.
The same measure for B2: 190 nM; for B3: 950 nM.
